Legend:
[1] = thermal melting curve, homodimer (FIG. 3)
[2] = thermal melting curve, homodimer (FIG. 3); remark: listed apart in the source
[3] = thermal melting curve, homodimer (FIG. 4)
[4] = thermal melting curve, homodimer (FIG. 4); remark: listed apart in the source
[5] = CD thermal melt, homodimer
[6] = CD thermal melt, homodimer, 150 mM KCl
[7] = CD thermal melt, homodimer, low salt (50 mM KCl)

B1: CREB (unmodified) (protein, from a related filing)
chain: MASSPALPTQPAEEAARKREVRLMKNREAARECRRKKKEYVKCLENRVAVLENQNKTLIEELKALKDLYCHKSD
In the case of B1, the Tm [1] is reported as “the melting temperature of unmodified CREB homodimerization is 47 °C”.

B2: 4heptadCREB (CREB with 4 heptad repeats appended at the amino terminus) (protein)
chain: ASMTGGQQMGRDPDLEQRAEELARENEELEKEAEELEQENAELENRVAVLENQNKTLIEELKALKDLYCHKSD
For B2, the Tm [2] was “(4heptadCREB homodimerization) is 22 °C”.

B3: c-Jun (unmodified) (protein, from a related filing)
chain: PLSPIDMESQERIKAERKRMRNRIAASKCRKRKLERIARLEEKVKTLKAQNSELASTANMLREQVAQLKQKVMNHVNSGCQLMLTQQLQTF
For B3, the Tm [3] was “homodimerization of unmodified c-Jun had a melting temperature of 29.4 °C”.

B4: 4heptad-Fos (c-Fos with the basic region replaced by four acidic heptad repeats) (protein)
chain: MASMTGGQQMGRDPDLEQRAEELARENEELEKEAEELEQENAELEAETDQLEDEKSALQTEIANLLKEKEKLEFILAAHRPACKIP
In the case of B4, the Tm [4] is reported as “homodimerization of acidically modified c-Fos ... had a melting temperature of 25 °C”.

B5: C/EBP bZIP domain (chimeric GCN4-C/EBP protein) (protein)
chain: SEYQPSLFALNPMGFSPLDGSKSTNENVSASTSTAKPMVGQLIFDKFIKTEEDPGKAKKSVDKNSNEYRVRRERNNIAVRKSRDKAKQRNVETQQKVLELTSDNDRLRKRVEQLSRELDTLRGIFRQLPESSLVKAMGNCA
With B5 the “fall of Tm in 50 mM KCl against 150 mM KCl” value [5] was “less stable by 4 °C in 50 mM KCl compared with 150 mM KCl”, the Tm [6] was 49.5 °C and the Tm [7] was 45.8 °C.

B6: VBP-C/EBP chimeric protein (VBP basic region on the C/EBP leucine zipper) (protein)
chain: ASMTGGQQMGRDPLEEKVFVPDEQKDEKYWTRRKKNNVAAKRSRDARRLKENQTQQKVLELTSDNDRLRKRVEQLSRELDTLRGIFRQLPESSLVKAMGNCA
With B6 the “difference of homodimer Tm from C/EBP” value [5] was “as homodimers showed a Tm within 1 °C of C/EBP” and the Tm [6] was 50 °C.

B7: GBF-C/EBP chimeric protein (GBF basic region on the C/EBP leucine zipper) (protein)
chain: PVKDERELKRQKRKQSNRESARRSRLRNEAECEQTQQKVLELTSDNDRLRKRVEQLSRELDTLRGIFRQLPESSLVKAMGNCA
With B7 the “difference of homodimer Tm from C/EBP” value [5] was “as homodimers showed a Tm within 1 °C of C/EBP” and the Tm [6] was 50.2 °C.

B8: 0heptad-F (F zipper with the basic region deleted) (protein)
chain: ASMTGGQQMGRDPGGGTQQEVLELESRNDRLRKEVEQLERELDTLRGIFRQLPESSLVKAMGNCA
B8 gave a Tm [6] of 30 °C.

B9: 1heptad-F (protein)
chain: ASMTGGQQMGRDPGGGLEQENAELEQEVLELESRNDRLRKEVEQLERELDTLRGIFRQLPESSLVKAMGNCA
Work on B9 yielded a Tm [6] of 29 °C.

B10: 2heptad-F (protein)
chain: ASMTGGQQMGRDPGGGLEKEAEELEQENAELEQEVLELESRNDRLRKEVEQLERELDTLRGIFRQLPESSLVKAMGNCA
With B10 the Tm [6] was 24.8 °C.

B11: 3heptad-F (protein)
chain: ASMTGGQQMGRDPGGGLARENEELEKEAEELEQENAELEQEVLELESRNDRLRKEVEQLERELDTLRGIFRQLPESSLVKAMGNCA
For B11, the Tm [6] was 28.3 °C.

B12: 4heptad-F (protein)
chain: ASMTGGQQMGRDPGGGLEQRAEELARENEELEKEAEELEQENAELEQEVLELESRNDRLRKEVEQLERELDTLRGIFRQLPESSLVKAMGNCA
Work on B12 yielded a Tm [6] of 15.2 °C.

From patent US20030027314
